Data as given in the supplement of paper PMC9732359.
± gives the uncertainty stated by the source.

Assay: protein stability index of a GFP-peptide fusion (yeast GPS) (PSI 1-4); higher = more stable; sorted into four equal gates, so the index is relative within each strain
Outline: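 For each peptide, the protein stability index sums the read frequency in every gate after multiplying it by the gate number. Read frequencies came from plasmids that were PCR-amplified from each gate and Illumina-sequenced, with reads assigned to strains by barcodes. The gates were four equal bins of GFP/Cherry fluorescence ratio applied to mid-log yeast in leucine-free medium carrying a pooled library of tiled 17-residue yeast protein peptides fused downstream of GFP on a Cherry-expressing plasmid.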

Sequence	protein stability index (doa10∆)	protein stability index (pdr5∆)	protein stability index (san1∆)	protein stability index (ubr1∆)
TMRKISSETDDDHSQVI [DSN1]	2.91 ± 0.048	3.24 ± 0.064	3.1 ± 0.035	3.15 ± 0.055
ICEPKETLSIFTNVPLN [YJL039C/NUP192]	2.1 ± 0.046	2.24 ± 0.042	2.54 ± 0.05	2.36 ± 0.037
KDFIENVNNRFDNFLTE [BRN1]	3.06 ± 0.086	3.04 ± 0.093	3.2 ± 0.068	2.88 ± 0.066
HPIRVLMASVILDSLPS [YDL116W/NUP84]	1.7 ± 0.051	1.52 ± 0.042	1.62 ± 0.056	1.62 ± 0.048
RKVSGPRALQPSQFGML [RET1]	2.36 ± 0.089	1.67 ± 0.059	2.46 ± 0.12	2.56 ± 0.09
IMQEAGLRAVRKNRYVI [RPT3]	2.89 ± 0.076	2.97 ± 0.099	2.91 ± 0.083	3.29 ± 0.13
ILEESLNAIILKLEKLN [SMC3]	1.66 ± 0.061	1.72 ± 0.062	1.5 ± 0.14	2.24 ± 0.07
ADRNDDDEGSFAQENSE [SRB6]	3.08 ± 0.11	3.22 ± 0.13	2.6 ± 0.17	3.22 ± 0.12
QQSNKLHCCIQLLMGDI [RPN3]	1.72 ± 0.045	1.99 ± 0.068	2 ± 0.064	1.84 ± 0.054
LFGEKSILGKFCPIVEE [YCS4]	1.55 ± 0.041	1.74 ± 0.052	1.57 ± 0.11	1.73 ± 0.039
PAELEGLLDLERVIVVT [FAS2]	2.38 ± 0.1	2.11 ± 0.064	1.78 ± 0.17	1.77 ± 0.11
KKPSPQTIPIQIYGFEG [YGR119C/NUP57]	2.61 ± 0.26	3.06 ± 0.22	2.49 ± 0.15	3.08 ± 0.17
KYCEIMGDNSQLDFTEF [SNF2]	3.16 ± 0.085	3.2 ± 0.11	2.87 ± 0.1	3.29 ± 0.073
SQRPGARILARSERKRT [ITC1]	3.14 ± 0.18	2.79 ± 0.17	3.07 ± 0.21	2.98 ± 0.2
NLKGRPYTGWVDSKTKE [FAS2]	3.03 ± 0.062	2.95 ± 0.047	3.11 ± 0.048	3.04 ± 0.045
KASKEIKKVICGAWEPA [SIR3]	2.15 ± 0.25			2.67 ± 0.11
MVKNVKPSSPPDVKSLV [SIR4]	3.23 ± 0.11	3.12 ± 0.063	2.97 ± 0.085	3.13 ± 0.068
TRQSSRNFDTHENYIQD [MCD1]	2.92 ± 0.098	3.03 ± 0.082	2.84 ± 0.08	2.69 ± 0.056
ELISFKERTKSLEHELK [YIL149C/MLP2]	2.24 ± 0.062	2.64 ± 0.064	2.78 ± 0.073	2.78 ± 0.083
RTSATREDTPLSQNEST [ISW2]	2.99 ± 0.072	3.16 ± 0.064	2.93 ± 0.062	2.96 ± 0.05
TMMTVEEKPDVTYSDVG [RPT1]	2.58 ± 0.1	2.42 ± 0.068	1.83 ± 0.14	2.3 ± 0.055
ARRRQPTDQNNQSNLNG [SNF2]	2.88 ± 0.12	3.25 ± 0.19	3.11 ± 0.07	3.24 ± 0.16
PVIDYELKEITSLPDWC [BRR2]	2.8 ± 0.099	2.78 ± 0.086	3.1 ± 0.086	3.05 ± 0.048
DLEGRANIFRIHSKSMS [RPT1]			3.21 ± 0.25	
LAIADVETKLETKVDEL [DSN1]	3.04 ± 0.084	3.09 ± 0.074	3.19 ± 0.05	2.85 ± 0.087
KKLDYVLALKVEDFLER [RPS9A]	1.76 ± 0.092	2.73 ± 0.079	2.08 ± 0.067	2.72 ± 0.072

Sequence	protein stability index (doa10∆)	protein stability index (pdr5∆)	protein stability index (san1∆)	protein stability index (ubr1∆)
EPLAFYLEESFTNLGII [RGR1]	1.67 ± 0.063	2.18 ± 0.053	2.35 ± 0.071	2.57 ± 0.045
ILARNDEEMAVLTRMDE [SNF2]	3.04 ± 0.071	2.87 ± 0.079	2.37 ± 0.084	3.15 ± 0.047
NPFEDDMDGVDFNQAFE [BRN1]	3.31 ± 0.05	3.21 ± 0.064	3.39 ± 0.038	3.3 ± 0.049
HAQSKREGRHSGYGKRK [RPL19A]	2.8 ± 0.086	2.9 ± 0.08	2.85 ± 0.05	2.96 ± 0.042
DRKKDKNVKHSGNIQLD [RPL12A]	3.31 ± 0.12	3.46 ± 0.17	3.38 ± 0.073	3.18 ± 0.096
LPQCIIPSSYIKRTDEG [ARP7]	2.77 ± 0.1	2.59 ± 0.068	2.13 ± 0.099	2.49 ± 0.065
FTKKPVTPNDKIPEREE [SIR4]	3.05 ± 0.13	2.95 ± 0.087	3.27 ± 0.13	3.1 ± 0.063
ELDSKTRKILEILNECH [MED4]	3.21 ± 0.074	3.22 ± 0.06	3.27 ± 0.037	3.21 ± 0.043
SYIGTIIVKDKSNDSEG [POP1]	1.4 ± 0.1	1.44 ± 0.052	1.45 ± 0.093	1.35 ± 0.093
VDIQIINQYQLLYNLKN [SWI1]	1.68 ± 0.031	1.54 ± 0.041	1.49 ± 0.086	1.33 ± 0.033
GLKYALATGNWGEQKKA [RPB2]	2.58 ± 0.097	2.85 ± 0.075	3.01 ± 0.082	2.8 ± 0.063
EYKTSSDSLGPDTSNEI [SRB2]	2.67 ± 0.23	2.47 ± 0.089	2.96 ± 0.2	2.55 ± 0.1
LLIISCIIFITFEFINI [YML031W/NDC1]	1.29 ± 0.038	1.43 ± 0.038	1.28 ± 0.079	1.28 ± 0.029
ETFQDTFSGALGKQSSS [FAS2]	3.23 ± 0.063	3.32 ± 0.066	3.15 ± 0.039	3.11 ± 0.055
THLEIEPFTILGAVAGL [RET1]	1.42 ± 0.041	1.91 ± 0.054	2.08 ± 0.12	2.04 ± 0.048
YNTNFNLLLRELNVEKL [SRP72]	2.9 ± 0.091	3.18 ± 0.11	2.89 ± 0.089	3.26 ± 0.056
IKKEEGKIDEAADILCE [RPN5]	3.1 ± 0.096	2.69 ± 0.12	2.95 ± 0.11	2.52 ± 0.069
YAKEDAFSYPRMYEEAS [RPN2]	2.66 ± 0.091	1.35 ± 0.082	1.27 ± 0.11	1.43 ± 0.058
SKSAPSKKISNTAAALV [YAR002W/NUP60]	3.1 ± 0.067	2.97 ± 0.068	3.12 ± 0.041	3.14 ± 0.048
KRKEELVSTLTTGISST [SMC2]	2.3 ± 0.061	2.07 ± 0.052	2.61 ± 0.086	2.11 ± 0.045
GALEEITKDHKVLARQQ [FAS2]	2.31 ± 0.25		3.01 ± 0.12	2.73 ± 0.17
LNTFHFAGVASKKVTSG [RPO21]	2.67 ± 0.093	3.13 ± 0.078	2.9 ± 0.065	2.9 ± 0.077
KIRRHPNIMLIFGSGFG [FAS1]	1.9 ± 0.057	2.07 ± 0.061	1.68 ± 0.13	1.39 ± 0.054
GVEVRVTPTKTEVIIRA [RPS3]	1.75 ± 0.048	1.73 ± 0.047	2.55 ± 0.071	1.57 ± 0.036
NVKNYSTTQEILEFITA [RPC34]	1.28 ± 0.24	1.45 ± 0.088	1.18 ± 0.18	1.25 ± 0.15
VVQDSQTATQLLERGRL [SMC2]	2.9 ± 0.053	2.87 ± 0.08	2.81 ± 0.054	2.5 ± 0.058
